# Source: paper PMC5811608, “Structure of prothrombin in the closed form reveals new details on the mechanism of activation” (Scientific Reports, 2018)
# Target: Human recombinant prethrombin-2 (human)
# Test: SPR; Biacore S200; prethrombin-2 amine-coupled (NHS/EDC) to a CM5 chip, 1633 RU; fragment-1 injected, two-fold dilutions 7.4-119 uM, single-cycle kinetics, 35 ul/min; 20 mM HEPES, 150 mM NaCl, 5 mM CaCl2, pH 7.4; referenced to an unmodified CM5 surface
# Settings: both partners purified
binder,measurement,value
"fragment-1 of prothrombin (domain or fragment, purchased fragment-1 (presumably plasma-derived): Gla domain gamma-carboxyglutamates, N-glycans and disulfides expected; 5 mM CaCl2 in assay. Mature numbering + 43 = precursor; ends at cleavage site …) ANTFLEEVRKGNLERECVEETCSYEEAFEALESSTATDVFWAKYTACETARTPRDKLAACLEGNCAEGLGTNYRGHVNITRSGIECQLWRSRYPHKPEINSTTHPGADLQENFCRNPDSSTTGPWCYTTDPTVRRQECSIPVCGQDQVTVAMTPR",Kd,> 200 µM
